Experiments:
[1] = target: E. coli ribosomal post-peptide-release complex (RC; 70S, tRNA^fMet and [Met, stop]-mRNA) (E. coli) (UniProt P0AG67); experiment: co-sedimentation; as a1 but with extra GDP titrated in, up to 200 μM extra GDP; ultracentrifugation on sucrose cushion, SDS-PAGE
[2] = target: E. coli ribosomal post-peptide-release complex (RC; 70S, tRNA^fMet and [Met, stop]-mRNA) (E. coli) (UniProt P0AG67); experiment: co-sedimentation; RC or naked 70S (ribosomes 0.5 µM) with RF1 (2 µM) and RF3 (6 µM), 1xHEPES-polymix buffer, 37°C 10 min, no extra added GDP; ultracentrifugation on 30% sucrose cushion, SDS-PAGE, band intensities compared with ribosomal protein S1

“release factor 1 (RF1), wild type (from UniProt P0A7I0 1-360) (natural protein)” gave a stoichiometry N (RF1 per S1 (band intensity)) [1] of 1 and a stoichiometry N (RF1 per S1 (band intensity)) [2] of 1.

Source: publication PMC3677378
